According to patent US20240052042A1 (Novartis, published 2024):
Substitutions are numbered along the chain they refer to. Where two headings read alike, the source gives them in different places. One block for each binder: values may come before it.

Legend:
[1] = target: T1, hNPR1-ANP complex (human, UniProt P01160 124-151, limits assumed); experiment: ELISA, IgG titrated on coated antigen with ANP (250 fold molar excess), fluorescence [Cont.]
T1 construct: hNPR1 antigen in the presence of ANP; also called hNPR1 + 100 nM ANP
T1 sequence: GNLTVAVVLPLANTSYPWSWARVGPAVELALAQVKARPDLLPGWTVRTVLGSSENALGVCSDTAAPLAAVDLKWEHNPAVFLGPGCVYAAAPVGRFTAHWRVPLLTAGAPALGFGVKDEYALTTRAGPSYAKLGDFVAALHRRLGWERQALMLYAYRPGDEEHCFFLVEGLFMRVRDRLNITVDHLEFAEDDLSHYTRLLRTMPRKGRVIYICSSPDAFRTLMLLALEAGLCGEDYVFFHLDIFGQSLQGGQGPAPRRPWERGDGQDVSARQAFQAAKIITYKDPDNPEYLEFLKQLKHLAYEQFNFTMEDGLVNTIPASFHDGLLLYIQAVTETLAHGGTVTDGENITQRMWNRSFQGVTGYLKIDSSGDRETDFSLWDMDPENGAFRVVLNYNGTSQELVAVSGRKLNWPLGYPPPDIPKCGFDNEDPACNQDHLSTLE
T1 sequence (peptide): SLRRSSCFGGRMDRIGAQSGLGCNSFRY

[2] = target: T2, rNPR1-ANP complex (rat, UniProt P01160 124-151 (human entry), limits assumed); experiment: as above
T2 construct: rNPR1 antigen in the presence of ANP; also called rNPR1 + 100 nM ANP
T2 sequence: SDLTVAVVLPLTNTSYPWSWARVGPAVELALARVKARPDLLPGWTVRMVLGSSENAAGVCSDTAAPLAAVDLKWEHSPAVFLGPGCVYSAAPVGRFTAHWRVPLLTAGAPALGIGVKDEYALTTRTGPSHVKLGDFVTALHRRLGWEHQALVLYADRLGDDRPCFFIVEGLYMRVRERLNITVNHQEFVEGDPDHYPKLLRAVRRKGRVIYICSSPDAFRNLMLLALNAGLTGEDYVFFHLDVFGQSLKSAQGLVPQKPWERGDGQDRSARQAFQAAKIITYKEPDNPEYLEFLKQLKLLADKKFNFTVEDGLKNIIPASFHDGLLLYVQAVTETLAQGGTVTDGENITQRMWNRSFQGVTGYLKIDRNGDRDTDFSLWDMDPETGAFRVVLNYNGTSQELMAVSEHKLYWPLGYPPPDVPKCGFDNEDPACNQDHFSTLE
T2 sequence (peptide): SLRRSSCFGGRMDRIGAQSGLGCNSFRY

[3] = target: T3, human NPR1 on CHO-K1 cells (human, UniProt P16066 33-1061); experiment: flow cytometry (FL2-H) on hNPR1 CHO-K1 cells without ANP, IgG titrated; control parental CHO-K1 [panel YY02]
T3 construct: also called hNPR1 CHO K1; human NPR1 expressing CHO-K1 cells
T3 sequence: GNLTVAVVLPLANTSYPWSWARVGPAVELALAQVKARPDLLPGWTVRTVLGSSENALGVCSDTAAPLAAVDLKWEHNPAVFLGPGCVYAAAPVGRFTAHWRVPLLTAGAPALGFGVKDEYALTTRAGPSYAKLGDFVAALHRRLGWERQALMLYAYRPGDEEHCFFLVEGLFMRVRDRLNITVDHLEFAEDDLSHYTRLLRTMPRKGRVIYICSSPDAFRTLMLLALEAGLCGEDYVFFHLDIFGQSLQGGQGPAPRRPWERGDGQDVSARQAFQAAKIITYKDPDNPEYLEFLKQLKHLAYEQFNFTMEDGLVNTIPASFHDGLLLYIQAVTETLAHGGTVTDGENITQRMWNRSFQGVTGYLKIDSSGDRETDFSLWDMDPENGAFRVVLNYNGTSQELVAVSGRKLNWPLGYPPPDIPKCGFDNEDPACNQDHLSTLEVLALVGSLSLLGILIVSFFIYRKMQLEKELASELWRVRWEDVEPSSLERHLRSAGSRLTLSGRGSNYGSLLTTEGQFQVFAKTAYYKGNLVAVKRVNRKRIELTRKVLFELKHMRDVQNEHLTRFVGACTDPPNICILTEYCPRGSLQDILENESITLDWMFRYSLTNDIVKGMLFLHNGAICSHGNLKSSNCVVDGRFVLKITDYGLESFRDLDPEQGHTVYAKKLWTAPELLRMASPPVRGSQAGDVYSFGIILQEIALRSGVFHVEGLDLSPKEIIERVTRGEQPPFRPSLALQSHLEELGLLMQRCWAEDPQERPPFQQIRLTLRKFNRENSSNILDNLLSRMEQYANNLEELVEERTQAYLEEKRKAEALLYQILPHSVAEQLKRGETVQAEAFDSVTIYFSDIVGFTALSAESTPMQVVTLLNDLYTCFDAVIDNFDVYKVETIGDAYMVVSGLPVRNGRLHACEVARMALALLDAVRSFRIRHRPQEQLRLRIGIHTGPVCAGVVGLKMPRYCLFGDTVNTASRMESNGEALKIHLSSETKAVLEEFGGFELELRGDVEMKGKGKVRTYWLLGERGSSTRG

[4] = target: T4, human NPR1 on CHO-K1 cells in the presence of ANP (human, UniProt P01160 124-151); experiment: flow cytometry (FL2-H) on hNPR1 CHO-K1 cells with saturating ANP, IgG titrated; control parental CHO-K1 [panel YY02]
T4 construct: also called hNPR1 CHO K1 + 100 nM ANP
T4 sequence: T3 sequence
T4 sequence (peptide): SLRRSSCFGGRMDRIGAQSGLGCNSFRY

[5] = target: T4, human NPR1 on CHO-K1 cells in the …; experiment: flow cytometry (FL2-H) on hNPR1 CHO-K1 cells with saturating ANP, IgG titrated; control parental CHO-K1 [panel YY03]
[6] = target: T1, hNPR1-ANP complex; experiment: ELISA, IgG titrated on coated antigen with ANP (250 fold molar excess), fluorescence [Cont.]; remark: listed apart in the source
[7] = target: T2, rNPR1-ANP complex; experiment: as above; remark: listed apart in the source
[8] = target: T5, human Natriuretic Peptide Receptor 1 (hNPR1) (human, UniProt P16066 33-473, limits assumed); experiment: ELISA, IgG titrated on coated antigen, fluorescence [Cont.]
T5 construct: pannings used NPR1-hFc; also called NPR1-hFc
T5 sequence: T1 sequence

[9] = target: T4, human NPR1 on CHO-K1 cells in the …; experiment: flow cytometry (FL2-H) on hNPR1 CHO-K1 cells with saturating ANP, IgG titrated; control parental CHO-K1 [panel YY01]
[10] = target: T1, hNPR1-ANP complex; experiment: ELISA, 1 µM IgG; parameters: unit not given here
[11] = target: T2, rNPR1-ANP complex; experiment: ELISA, 1 µM IgG; parameters: unit not given here
[12] = target: T5, human Natriuretic Peptide Receptor 1 …; experiment: ELISA, 1 µM IgG; parameters: unit not given here
[13] = target: T4, human NPR1 on CHO-K1 cells in the …; experiment: flow cytometry, hNPR1 CHO-K1 cells, IgG
[14] = target: T3, human NPR1 on CHO-K1 cells; experiment: flow cytometry, hNPR1 CHO-K1 cells, IgG
[15] = target: T3, human NPR1 on CHO-K1 cells; experiment: cell-based or functional assay
[16] = target: T4, human NPR1 on CHO-K1 cells in the …; experiment: flow cytometry (FL2-H) on hNPR1 CHO-K1 cells with saturating ANP, IgG titrated; control parental CHO-K1 [Cont.), panel YY04]
[17] = target: T6, rat NPR1 (rNPR1) (rat, UniProt P18910 29-469, limits assumed); experiment: ELISA, IgG titrated on coated antigen, fluorescence [Cont.]
T6 construct: Soluble antigen
T6 sequence: T2 sequence

[18] = target: T5, human Natriuretic Peptide Receptor 1 …; experiment: as above; remark: listed apart in the source
[19] = target: T4, human NPR1 on CHO-K1 cells in the …; experiment: flow cytometry (FL2-H) on hNPR1 CHO-K1 cells with saturating ANP, IgG titrated; control parental CHO-K1 [Cont.), panel XX08]

B1: YY02 (IgG format) (antibody, V domains shown)
VH: EVQLVESGGGLVKPGGSLRLSCAASGFTFSSYSMNWVRQAPGKGLEWVSSISSSSSYIYYADSVKGRFTISRDNAKNSLYLQMNSLRAEDTAVYYCARSGYRGVYGFDYWGQGTLVTVSS
VL: DIQMTQSPSSVSASVGDRVTITCRASQGISSWLAWYQQKPGKAPKLLIYAASSLQSGVPSRFSGSGSGTDFTLTISSLQPEDFATYYCQQYYHSPLTFGQGTKVEIKR
notes: IgG format; also called YY02_LALA
- EC50 (read off the curve) [1]: ~0.8 nM
- EC50 (read off the curve) [2]: ~0.3 nM
- EC50 (read off the curve) [3]: ~200 nM
- EC50 (read off the curve) [4]: ~1 nM

B3: YY01 (IgG format) (antibody, V domains shown)
VH: EVQLVESGGGLVQPGGSLRLSCAASGFTFSSYWISWVRQAPGKGLEWVANIKQSGSETYYVESVKGRFTISRDNAKNSLYLQMNSLRAEDTAVYYCARSLRRRSTEHAGFDVWGQGTLVTVSS
VL: DIQMTQSPSSLSASVGDRVTITCRASQGISNYLAWYQQKPGKVPKLLIYAASTLQSGVPSRFSGSGSGTDFTLTISSLQPEDVATYYCQQADKFPYTFGQGTKVEIKR
notes: also called YY01_LALA
- EC50 (read off the curve) [9]: ~0.2 nM
- ELISA binding at 1 µM IgG [10]: 76
- ELISA binding at 1 µM IgG [11]: 50
- ELISA binding at 1 µM IgG [12]: 54
- flow cytometry S/BG at 1 µM IgG [13]: 21 S/BG
- flow cytometry S/BG at 1 µM IgG [14]: 35 S/BG
- cGMP conc [nM] at 1 µM IgG, +0.075 nM ANP [15]: 14 nM
- cGMP conc [nM] at 1 µM IgG, without ANP [15]: 5 nM

B5: XX08 (antibody, V domains shown)
VH: EVQLLESGGGLVQPGGSLRLSCAASGFTFNTHYIHWVRQAPGKGLEWVSSIGGQGGMTLYADSVKGRFTISRDNSKNTLYLQMNSLRAEDTAVYYCARERGYVYYHMFDPWGQGTLVTVSS
VL: DIVLTQSPATLSLSPGERATLSCRASQSITRNYLAWYQQKPGQAPRLLIYGASSRATGIPARFSGSGSGTDFTLTISSLEPEDFAVYYCQQHSMYPRTFGQGTKVEIKR
notes: x axis reads IgG conc; [nM]; also called XX08 (IgG format)
- EC50 (read off the curve) [17]: ~20 nM
- EC50 (read off the curve) [18]: ~20 nM
- EC50 (read off the curve) [19]: ~2 nM

Now from value to binder:

- EC50 (read off the curve) [5]: ~2 nM
- EC50 (read off the curve) [6]: ~1 nM
- EC50 (read off the curve) [7]: ~0.2 nM
- binding result [8]: binds
B2: YY03 (IgG format) (antibody, V domains shown)
VH: EVQLLESGGGLVQPGGSLRLSCAASGFTFSSYAISWVRQAPGKGLEWVSAISGSGGSTYYAESVKGRFTISRDNSKNTLYLQMNSLRAEDTAVYYCARESGYVYYLKFDYWGQGTLVTVSS
VL: B1 VL with V11L, G28S, W32Y, A34N, Y91H, Y92V, H93R, S94V, L96I
notes: IgG format; also called YY03_LALA

- EC50 (read off the curve) [16]: ~0.2 nM
- ELISA binding at 1 µM IgG [10]: 60
- ELISA binding at 1 µM IgG [11]: 54
- flow cytometry S/BG at 1 µM IgG [13]: 33 S/BG
B4: YY04 (IgG format) (antibody, V domains shown)
VH: EVQLVESGGGLVKPGGSLRLSCAASGFTFSNYWISWVRQAPGKGLEWVGRIKSKTYGGTTDYAEPVKGRFTISRDDSKNTLYLQMNSLKTEDTAVYYCAREKYSIRARGHGDYGFDVWGQGTLVTVSS
VL: B3 VL with A91G, D92Y, K93H, F94A, Y96F
notes: also called YY04_LALA
